Experimental findings from paper PMC5955610 (Structure (London, England : 1993), 2010) are described below.

This assay concerns the target T1, RMI1C (C-terminal domain of human RMI1, residues 475-625) (human, UniProt Q9H9A7 475-625, Se-Met substituted in the crystals).
T1 sequence (looked up): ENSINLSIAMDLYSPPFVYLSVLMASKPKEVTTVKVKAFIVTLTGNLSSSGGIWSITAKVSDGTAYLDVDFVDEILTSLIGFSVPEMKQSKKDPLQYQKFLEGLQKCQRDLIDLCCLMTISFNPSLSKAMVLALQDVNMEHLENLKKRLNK
The experiment in a line: crystal structure + SEC.

B1: RMI2 (residues 6-147) (domain or fragment, human, UniProt Q96E14 6-147, looked up)
chain: DSFSGGPAGVRLPRSPPLKVLAEQLRRDAEGGPGAWRLSRAAAGRGPLDLAAVWMQGRVVMADRGEARLRDPSGDFSVRGLERVPRGRPCLVPGKYVMVMGVVQACSPEPCLQAVKMTDLSDNPIHESMWELEVEDLHRNIP
modifications: Se-Met substituted in the crystals
Turning to B1, the “stoichiometry N” value is 1 RMI1C:RMI2.
